The EC50 is the concentration at which the effect is half-maximal. Low values mean higher potency in that assay, high ones lower potency in that assay. Usually IC50 stands for the concentration needed to halve the response being measured. The term Kd denotes the constant that tells how readily two partners part at equilibrium. The low end stands for a tighter complex, the high end for a looser complex.

These results are taken from US7179886B1, “Cloning and identification of the motilin receptor” (Merck & Co., Inc., priority 1999, dated 2007).

No end group written: not given here. *: point of attachment. 125I = [125I]*

In experiment [1] the target is T1, Cloned MTL-1A Receptor (human) (Homo sapiens, UniProt O43193).
T1 construct: The full length open reading frame appears to contain 412 amino acids; expressed in transfected cells; host or cells: HEK-293/aeq17 (293-AEQ17), transient transfection with lipofectamine
T1 sequence (O43193 whole entry): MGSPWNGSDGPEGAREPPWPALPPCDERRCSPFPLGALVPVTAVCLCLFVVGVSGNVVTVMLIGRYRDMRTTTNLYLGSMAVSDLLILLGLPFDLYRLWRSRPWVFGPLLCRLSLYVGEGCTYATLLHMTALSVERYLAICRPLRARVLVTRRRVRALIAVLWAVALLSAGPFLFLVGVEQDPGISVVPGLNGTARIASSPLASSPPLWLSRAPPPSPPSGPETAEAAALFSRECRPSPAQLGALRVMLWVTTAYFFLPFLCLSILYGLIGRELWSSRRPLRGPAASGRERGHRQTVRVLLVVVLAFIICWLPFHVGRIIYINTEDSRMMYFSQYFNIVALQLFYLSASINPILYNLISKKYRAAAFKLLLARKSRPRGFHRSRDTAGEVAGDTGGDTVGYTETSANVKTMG
The experiment is described as follows: [^125I] human motilin binding to crude membranes from HEK-293/aeq17 cells transfected with MTL-R1A cDNA. The note with it: for IC50: competition binding, crude membranes, 20° C. for 1 hr., read-out: [^125I] hmotilin binding (IC50). As to the method:
Crude cell membranes were prepared on ice, 48 hrs. post-transfection. […] Bound radioligand was separated by rapid vacuum filtration (Brandel 48-well cell harvester) through GF/C filters pretreated for 1 hr. with 0.5% polyethylenimine.

The target in experiment [2] is T1, Cloned MTL-1A Receptor (human). Description: Aequorin bioluminescence assay in HEK-293/aeq17 cells transfected with MTL-R1A. Format: cell-based. The note with it: for EC50: HEK-293/aeq17 cells transfected with human MTL-R1A; for activity in MTL1-A functional and binding assays: high (10 μM) doses, statement covers functional and binding assays. The source says:
A high-throughput assay was developed which measures Ca^2+realease with the bioluminescent Ca^2+sensitive-aequorin reporter protein (capable of measuring ligand-induced IP3-coupled mobilization of intracellular calcium and concomitant calcium-induced aequorin bioluminescence). […] The DNA and deduced amino acid sequence are given in SEQ. ID. NO.:2 and SEQ. ID. NO.:3, respectively.
To identify a ligand for this orphan GPCR and to determine whether the full length, 7 TM domain GPR38-A is a functional GPCR, a high-throughput assay was developed which measures Ca^2+ release with the bioluminescent Ca^2+ sensitive aequorin reporter protein (capable of measuring ligand-induced IP3-coupled mobilization of intracellular calcium and concomitant calcium-induced aequorin bioluminescence).
A broad set of peptide and non-peptide molecules was tested at a single concentration in transiently transfected HEK-293/aeq17 cells (100 nM peptide, 10 μM non-peptide).
The aequorin bioluminescence assay is a reliable test for identifying G protein-coupled receptors which couple through the Gα protein subunit family consisting of Gq and G11 which leads to the activation of phospholipase C, mobilization of intracellular calcium and activation of protein kinase C. Measurement of MTL-1A expression in the aequorin-expressing stable reporter cell line 293-AEQ17 (Button, D. et. al., 1993 Cell Calcium 14: p. 663–671.) was performed using a Luminoskan RT luminometer (Labsystems Inc., Gaithersburg, Md.).
293-AEQ17 cells (8×10^5 cells plated 18 hrs. before transfection in a T75 flask) were transfected with 22 μg of human MTL-R1A plasmid DNA: 264 μg lipofectamine. Following approximately 40 hours of expression the apo-aequorin in the cells was charged for 4 hours with coelenterazine (10 μM) under reducing conditions (300 μM reduced glutathione) in ECB buffer (140 mM NaCl, 20 mM KCl, 20 mM HEPES—NaOH [pH=7.4], 5 mM glucose, 1 mM MgCl2, 1 mM CaCl2, 0.1 mg/ml bovine serum albumin). The cells were harvested, washed once in ECB medium and resuspended to 500,000 cells/ml. 100 μl of cell suspension (corresponding to 5×10^4 cells) was then injected into the test plate, and the integrated light emission was recorded over 30 seconds, in 0.5 second units. 20 μL of lysis buffer (0.1% final Triton X-100 concentration) was then injected and the integrated light emission recorded over 10 seconds, in 0.5 second units. The “fractional response” values for each well were calculated by taking the ratio of the integrated response to the initial challenge to the total integrated luminescence including the Triton X-100 lysis response.

Experiment [3] has as its system cells that were not transfected with the MTL-R1A cDNA expression vector. Description: Aequorin bioluminescence assay in non-transfected cells. Format: cell-based, human. The settings on record: concentrations as high as 10 μM.
For experiment [4], the target named is T2, motilin receptor spliced form A (MTL-R1A), human (human, UniProt O43193 1-412).
T2 construct: Full-length 412 aa seven-transmembrane receptor, transiently expressed in HEK-293/aeq17 cells; also called MTL-1A; MTL1-A
T2 sequence (O43193 whole entry, canonical isoform): as the sequence (O43193 whole entry) above
The experiment is described as follows: direct radioligand binding on cell membranes from transfected cells.

For experiment [5], the target named is T2, motilin receptor spliced form A …. The experiment is described as follows: cell-based or functional assay.
Experiment [6] shares this target. Description: displacement of [125I] human motilin from crude membranes of MTL-R1A transfected HEK-293/aeq17 cells. As to the method:
Crude cell membranes were prepared on ice, 48 hrs. post-transfection. Each T-75 flask was washed twice with 10 ml of PBS, once with 1 ml homogenization buffer (50 mM Tris-HCl [pH 7.4], 10 mM MgCl_2. 10 ml of homogenization buffer was added to each flask, cells were removed by scraping and then homogenized using a Polytron device (Brinkmann, Syosset, N.Y.; 3 bursts of 10 sec. at setting 4). The homogenate was centrifuged for 20 min. at 11,000×g at 0° C. and the resulting crude membrane pellet (chiefly containing cell membranes and nuclei) was resuspended in homogenization buffer supplemented with 1.5% BSA (0.5 ml T75 flask) and kept on ice.
Bound radioligand was separated by rapid vacuum filtration (Brandel 48-well cell harvester) through GF/C filters pretreated for 1 hr. with 0.5% polyethylenimine. After application of the membrane suspension to the filter, the filters were washed 3 times with 3 ml each of ice-cold 50 mM Tris-HCl [pH 7.4], 10 mM MgCl_2, and the bound radioactivity on the filters was quantitated by gamma counting. […] Competition binding data were analyzed by a non-linear curve-fitting program (Prism V, version 2.0; GraphPad Software, San Diego, Calif.).
(In general: In a radioligand displacement assay an active substance lowers the binding of a labelled ligand.)

The target is the same in experiment [7]. The experiment is described as follows: cell-based or functional assay. The source holds these as a separate data set.

For the molecule `Nc1nc2c(ncn2[C@@H]2O[C@H](COP(=O)(O)OP(=O)(O)OP(O)(O)=S)[C@@H](O)[C@H]2O)c(=O)[nH]1` [GTPγS], the “inhibition of [^125I] human motilin binding” value in experiment [1] (100 nM GTPγS) was > 80%.

Take `COc1cc(N)c(Cl)cc1C(=O)NC1CCN(CCCOc2ccc(F)cc2)CC1OC` (centres unmarked) [cisapride]: in experiment [2], the EC50 was > 10000 nM; the “activity in MTL1-A functional and binding assays” value was “inactive”. Also, the IC50 in experiment [1] is > 10000 nM.

`CC[C@H](C)[C@H](NC(=O)[C@@H]1CCCN1C(=O)[C@@H](NC(=O)[C@@H](N)Cc1ccccc1)C(C)C)C(=O)N[C@@H](Cc1ccccc1)C(=O)N[C@H](C(=O)N[C@@H](Cc1ccc(O)cc1)C(=O)NCC(=O)N[C@@H](CCC(=O)O)C(=O)N[C@@H](CC(C)C)C(=O)N[C@@H](CCC(N)=O)C(=O)N[C@@H](CCCNC(=N)N)C(=O)N[C@@H](CCSC)C(=O)N[C@@H](CCC(N)=O)C(=O)N[C@@H](CCC(=O)O)C(=O)N[C@@H](CCCCN)C(=O)N[C@@H](CCC(=O)O)C(=O)N[C@@H](CCCNC(=N)N)C(=O)N[C@@H](CC(N)=O)C(=O)N[C@@H](CCCCN)C(=O)NCC(=O)N[C@@H](CCC(N)=O)C(=O)O)[C@@H](C)O` [human motilin]: in experiment [3], the “bioluminescent response in non-transfected cells” value is “no bioluminescent response above background levels”.

In the case of `CCN(CC)CCNC(=O)c1cc(Cl)c(N)cc1OC` [metoclopramide], in experiment [2], the EC50 was > 10000 nM; the “activity in MTL1-A functional and binding assays” value was “inactive”. Also, in experiment [1], the IC50 is > 10000 nM.

Turning to `CC[C@H]1OC(=O)[C@H](C)[C@@H](O[C@H]2C[C@@](C)(OC)[C@@H](O)[C@H](C)O2)[C@H](C)[C@@H](O[C@@H]2O[C@H](C)C[C@H](N(C)C)[C@H]2O)[C@](C)(O)C[C@@H](C)/C(=N\OCOCCOC)[C@H](C)[C@@H](O)[C@]1(C)O` [roxithromycin], in experiment [2], the midpoint of the response, the EC50, lay at 1950 nM. Further, the IC50 in experiment [1] amounted to 613 nM.

Take FVPIFTHSELQKIREKERNKGQ [canine motilin]: in experiment [1], the IC50 worked out at 0.2 nM.

As to FVPIFTY(125I)GELQRMQEKERNKGQ (peptide, UniProt P12872 26-47, looked up, mature) [[125I]-Tyr7-human motilin], in experiment [4], the Kd stood at 0.1 nM.

B1: Leu13 MTL (peptide, UniProt P12872 26-47, looked up)
peptide: FVPIFTYGELQRLQEKERNKGQ
notes: mature; Position 13 counts on the mature peptide, not on the precursor
For the molecule B1, the “Aequorin Assay (EC50 nM)” value in experiment [5] is 3.9 nM. In experiment [6], the IC50 was found to be 0.2 nM.

B2: 1-12 MTL (peptide, UniProt P12872 26-37, looked up)
peptide: FVPIFTYGELQR
notes: range 1-12; The range counts on mature motilin, not on the precursor entry
Take B2: the “Aequorin Assay (EC50 nM)” value in experiment [5] was 72 nM. The molecule further yielded an IC50 in experiment [6] of 14 nM.

B3: 1-19 MTL (peptide, UniProt P12872 26-44, looked up)
peptide: FVPIFTYGELQRMQEKERN
notes: range 1-19; The range counts on mature motilin, not on the precursor entry
With B3, the “Aequorin Assay (EC50 nM)” value in experiment [5] came to 4.1 nM. Besides, the IC50 in experiment [6] amounted to 0.3 nM.

B4: 1-11 MTL (peptide, UniProt P12872 26-36, looked up)
peptide: FVPIFTYGELQ
notes: range 1-11; The range counts on mature motilin, not on the precursor entry
As for B4, in experiment [5], the “Aequorin Assay (EC50 nM)” value turned out to be 138 nM. This molecule had an IC50 in experiment [6] of 127 nM.

For FVPIFTYGELQRMQEKERNKGQ (peptide, UniProt P12872 26-47, looked up) [human motilin], the “bioluminescent response (aequorin assay, 100 nM peptide, transfected HEK-293/aeq17 cells)” value in experiment [7] was > 4 fold over background.

B5: 1-13 MTL (peptide, UniProt P12872 26-38, looked up)
peptide: FVPIFTYGELQRM
notes: range 1-13; The range counts on mature motilin, not on the precursor entry
With B5, the “Aequorin Assay (EC50 nM)” value in experiment [5] stood at 3.8 nM. Moreover, the IC50 in experiment [6] is 0.9 nM.

As for FVPIFTHSELQKIREKERNKGQ (peptide, UniProt P19863 1-22, looked up) [canine motilin], the “Aequorin Assay (EC50 nM)” value in experiment [5] was found to be 4.4 nM.

B6: 10-22 MTL (peptide, UniProt P12872 35-47, looked up)
peptide: LQRMQEKERNKGQ
notes: range 10-22; The range counts on mature motilin, not on the precursor entry
Regarding B6, in experiment [5], the “Aequorin Assay (EC50 nM)” value was > 10000 nM. In experiment [6], the IC50 is 1100 nM.
